Tested on: Lenti-X 293T cells
Experiment: YFP fluorescence quenching anion reporter plate reader assay of engineered receptors stimulated with acetylcholine or a non-native ligand
Type: cell-based
Conditions: for percent quench of YFP fluorescence, 10 uM ach: acetylcholine 10 uM; for percent quench of YFP fluorescence, 30 uM ach: acetylcholine 30 uM; for percent quench of YFP fluorescence, 50 uM ach: acetylcholine 50 uM; for percent quench of YFP fluorescence, 100 uM ach: acetylcholine 100 uM; for percent quench of YFP fluorescence, 1 mM ach: acetylcholine 1 mM; for percent quench of YFP fluorescence, 3 mM ach: acetylcholine 3 mM
Method in brief: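 Lenti-X 293T cells carrying a YFP anion reporter were transiently transfected with channel DNA and assayed the next day in HEPES-buffered ECS at pH 7.2. Ligand (acetylcholine or non-native ligand) was added in NaI-substituted ECS. Percent quench was the mean of the last 10 s relative to the 15 s pre-addition baseline.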

B1: CODA109: engineered chimeric LGIC receptor, S170T in SEQ ID NO: 33 (protein)
chain: MRCSPGGVWLALAASLLHVSLQGEFQRKLYKELVKNYNPLERPVANDSQPLTVYFSLSLLQIMDVDEKNQVLTTNIWLQMSWTDHYLQWNVSEYPGVKTVRFPDGQIWKPDILLYNSADERFDATFHTNVLVNSSGHCQYLPPGIFKSSCPMDLKNFPMDVQTCKLKFGTWSYGGWSLDLQMQEADISGYIPNGEWDLVGIPGKRSERFYECCKEPYPDVTFTVTMRRRMGYYLIQMYIPSLLIVILSWISFWINMDAAPARVGLGITTVLTMTTQSSGSRASLPKVSYVKAIDIWMAVCLLFVFSALLEYAAVNFVSRQHKELLRFRRKRRHHKSPMLNLFQEDEAGEGRFNFSAYGMGPACLQAKDGISVKGANNSNTTNPPPAPSKSPEEMRKLFIQRAKKIDKISRIGFPMAFLIFNMFYWIIYKIVRREDVHNQ
modifications: synthetic sequence of chimeric LGIC
YFP fluorescence quenching using CNL001 (1 nM CNL001, first column): 19.755% | YFP fluorescence quenching using CNL001 (1 nM CNL001, second column): 65.484% | YFP fluorescence quenching using TC-5619/Bradanicline (3 nM brd): 70.58% | YFP fluorescence quenching using Varenicline (3 nM var, first column): −20.96 | YFP fluorescence quenching using Varenicline (3 nM var, second column): −19.953 | YFP fluorescence quenching using CNL001 (10 nM CNL001, first column): 79.024% | YFP fluorescence quenching using CNL001 (10 nM CNL001, second column): 81.563% | YFP fluorescence quenching using TC-5619/Bradanicline (30 nM brd): 80.71% | YFP fluorescence quenching using Facinicline (30 nM fac): 76.45 | YFP fluorescence quenching using Varenicline (30 nM var, first column): −16.094 | YFP fluorescence quenching using Varenicline (30 nM var, second column): −21.502 | YFP fluorescence quenching using CNL001 (50 nM CNL001, first column): 81.926% | YFP fluorescence quenching using CNL001 (50 nM CNL001, second column): 83.092% | YFP fluorescence quenching using ABT-126 (50 nM abt): 55.83% | YFP fluorescence quenching using CNL001 (100 nM CNL001, first column): 83% | YFP fluorescence quenching using CNL001 (100 nM CNL001, second column): 83.811% | YFP fluorescence quenching using CNL002 (100 nM CNL002): 73.48% | YFP fluorescence quenching using ABT-126 (100 nM abt): 68.89% | YFP fluorescence quenching using AZD-0328 (100 nM azd0328): 84.01% | YFP fluorescence quenching using Facinicline (100 nM fac): 82.45 | YFP fluorescence quenching using ABT-126 (300 nM abt): 72.52% | YFP fluorescence quenching using AZD-0328 (300 nM azd0328): 87.08% | YFP fluorescence quenching using TC-5619/Bradanicline (300 nM brd): 80.66% | YFP fluorescence quenching using Facinicline (300 nM fac): 71.09 | YFP fluorescence quenching using Varenicline (300 nM var, first column): 64.373 | YFP fluorescence quenching using Varenicline (300 nM var, second column): 71.198 | YFP fluorescence quenching using Varenicline (500 nM var, first column): 71.892 | YFP fluorescence quenching using Varenicline (500 nM var, second column): 73.53 | YFP fluorescence quenching using CNL001 (1 uM CNL001, first column): 81.834% | YFP fluorescence quenching using CNL001 (1 uM CNL001, second column): 83.858% | YFP fluorescence quenching using CNL002 (1 uM CNL002): 70.03% | YFP fluorescence quenching using ABT-126 (1 uM abt): 70.96% | YFP fluorescence quenching using TC-6987 (1 uM tc6987): 71.45 | YFP fluorescence quenching using Varenicline (1 uM var, first column): 75.461 | YFP fluorescence quenching using Varenicline (1 uM var, second column): 78.578 | YFP fluorescence quenching using TC-6987 (10 uM tc6987): 71.04 | YFP fluorescence quenching using AZD-0328 (30 uM azd0328): 87.27% | YFP fluorescence quenching using Facinicline (30 uM fac): 69.41 | YFP fluorescence quenching using TC-6987 (500 uM tc6987): 66.2 | percent quench of YFP fluorescence, 10 uM ach: 82.91% | percent quench of YFP fluorescence, 30 uM ach: 82.53% | percent quench of YFP fluorescence, 50 uM ach: 82.11% | percent quench of YFP fluorescence, 100 uM ach: 83.68% | percent quench of YFP fluorescence, 1 mM ach: 69.89% | percent quench of YFP fluorescence, 3 mM ach: 78.12%

B2: CODA75: non-responding chimeric engineered receptor used as the negative control (protein)
chain: MRCSPGGVWLALAASLLHVSLQGEFQRKLYKELVKNYNPLERPVANDSQPLTVYFSLSLLQIMDVDEKNQVLTTNIWLQMSWTDHYLQWNVSEYPGVKTVRFPDGQIWKPDILLYNSADERFDATFHTNVLVNSSGHCQYLPPGIFKSSCYIDVRWFPFDVQHCKLKFGSWSYGGWSLDLQMQEADISGYIPNGEWDLVGIPGKRSERFYECCKEPYPDVTFTVTMRRRTGYYLIQMYIPSLLIVILSWISFWINMDAAPARVGLGITTVLTMTTQSSGSEIMPATSDSVPLIAQAIDIWMAVCLLFVFSALLEYAAVNFVSRQHKELLRFRRKRRHHKSPMLNLFQEDEAGEGRFNFSAYGMGPACLQAKDGISVKGANNSNTTNPPPAPSKSPEEMRKLFIQRAKKIDKISRIGFPMAFLIFNMFYWIIYKIVRREDVHNQ
modifications: synthetic sequence of chimeric LGIC
notes: non-responding chimeric engineered receptor used as the negative control
YFP fluorescence quenching using CNL001 (1 nM CNL001, first column): −8.496% | YFP fluorescence quenching using CNL001 (1 nM CNL001, second column): −2.266% | YFP fluorescence quenching using TC-5619/Bradanicline (1 nM brd): −13.39% | YFP fluorescence quenching using TC-5619/Bradanicline (3 nM brd): −15.78% | YFP fluorescence quenching using Varenicline (3 nM var, first column): 4.161 | YFP fluorescence quenching using Varenicline (3 nM var, second column): −6.216 | YFP fluorescence quenching using CNL001 (10 nM CNL001, first column): 1.816% | YFP fluorescence quenching using CNL001 (10 nM CNL001, second column): −4.649% | YFP fluorescence quenching using TC-5619/Bradanicline (10 nM brd): −13.47% | YFP fluorescence quenching using TC-5619/Bradanicline (30 nM brd): −16.41% | YFP fluorescence quenching using Facinicline (30 nM fac): −11.68 | YFP fluorescence quenching using Varenicline (30 nM var, first column): −5.173 | YFP fluorescence quenching using Varenicline (30 nM var, second column): −6.593 | YFP fluorescence quenching using CNL001 (50 nM CNL001, first column): −5.922% | YFP fluorescence quenching using CNL001 (50 nM CNL001, second column): −5.597% | YFP fluorescence quenching using ABT-126 (50 nM abt): −17.07% | YFP fluorescence quenching using CNL001 (100 nM CNL001, first column): −8.159% | YFP fluorescence quenching using CNL001 (100 nM CNL001, second column): −5.058% | YFP fluorescence quenching using CNL002 (100 nM CNL002): −7.94% | YFP fluorescence quenching using ABT-126 (100 nM abt): −16.76% | YFP fluorescence quenching using AZD-0328 (100 nM azd0328): −8.83% | YFP fluorescence quenching using Facinicline (100 nM fac): 4.35 | YFP fluorescence quenching using ABT-126 (300 nM abt): −16.76% | YFP fluorescence quenching using AZD-0328 (300 nM azd0328): −11.15% | YFP fluorescence quenching using TC-5619/Bradanicline (300 nM brd): −17.56% | YFP fluorescence quenching using Facinicline (300 nM fac): −10.55 | YFP fluorescence quenching using Varenicline (300 nM var, first column): −5.733 | YFP fluorescence quenching using Varenicline (300 nM var, second column): −7.312 | YFP fluorescence quenching using ABT-126 (500 nM abt): −14.68% | YFP fluorescence quenching using Varenicline (500 nM var, first column): −10.35 | YFP fluorescence quenching using Varenicline (500 nM var, second column): −7.586 | YFP fluorescence quenching using CNL001 (1 uM CNL001, first column): −4.272% | YFP fluorescence quenching using CNL001 (1 uM CNL001, second column): −1.281% | YFP fluorescence quenching using CNL002 (1 uM CNL002): −9.81% | YFP fluorescence quenching using ABT-126 (1 uM abt): −16% | YFP fluorescence quenching using TC-6987 (1 uM tc6987): −11.79 | YFP fluorescence quenching using Varenicline (1 uM var, first column): −5.637 | YFP fluorescence quenching using Varenicline (1 uM var, second column): −3.757 | YFP fluorescence quenching using ABT-126 (3 uM abt): −14.11% | YFP fluorescence quenching using ABT-126 (10 uM abt): −13.98% | YFP fluorescence quenching using TC-6987 (10 uM tc6987): −14.31 | YFP fluorescence quenching using CNL002 (30 uM CNL002): −15.27% | YFP fluorescence quenching using ABT-126 (30 uM abt): −21.05% | YFP fluorescence quenching using AZD-0328 (30 uM azd0328): −11.92% | YFP fluorescence quenching using Facinicline (30 uM fac): −5.25 | YFP fluorescence quenching using ABT-126 (50 uM abt): −21.35% | YFP fluorescence quenching using ABT-126 (100 uM abt): −24.12% | YFP fluorescence quenching using TC-6987 (500 uM tc6987): −19.65 | percent quench of YFP fluorescence, 10 uM ach: −12.88% | percent quench of YFP fluorescence, 30 uM ach: −18.67% | percent quench of YFP fluorescence, 50 uM ach: −0.29% | percent quench of YFP fluorescence, 100 uM ach: −14.46% | percent quench of YFP fluorescence, 300 uM ach (acetylcholine 300 uM): −16.31% | percent quench of YFP fluorescence, 500 uM ach (acetylcholine 500 uM): −17.41% | percent quench of YFP fluorescence, 1 mM ach: −16.46% | percent quench of YFP fluorescence, 3 mM ach: −12.38% | percent quench of YFP fluorescence, 5 mM ach (acetylcholine 5 mM): −20.88% | percent quench of YFP fluorescence, 10 mM ach (acetylcholine 10 mM): −8.69%
